Data set [1] deals with NADH oxidase (NOX) from Lactobacillus brevis DSM 20054, wild type, SEQ ID NO:2 (Levilactobacillus brevis, UniProt Q03Q85). The following applies: higher NADH concentrations (up to 0.5 mM); photometric.
Substrate in data set [2]: NC(=O)C1=CN([C@@H]2O[C@H](COP(=O)(O)OP(=O)(O)OC[C@H]3O[C@@H](n4cnc5c(N)ncnc54)[C@H](O)[C@@H]3O)[C@@H](O)[C@H]2O)C=CC1
In words: purified protein, by the assay type. The following applies: other: NADH varied 0.0013 to 0.52 mM, photometric, 340 nm, 30° C., 100 mM potassium phosphate pH 7.5, 1 mM DTT (standard test), enzyme purified by 4 chromatographic steps.

Data set [3] can be described thus: temperature stability of the NADH oxidase (storage at 30° C. and 42° C., residual activity). Format: physicochemical. The procedure: In order to determine the temperature stability enzyme samples were stored at 30° C. and 42° C., samples were taken at various times, and the residual activity was measured. […] At 42° C. the enzyme deactivates initially (up to ca. 120 minutes) relatively quickly, following which it appears to be stable at ca. 50% residual activity over a relatively long time (at least 16 hours).

Data set [4] in a line: pH stability of the NADH oxidase (8 hours incubation in buffers, residual activity). Format: physicochemical. The procedure:
The pH optimum was measured in the range pH 4.0 to 10.0. Different buffers were used depending on the pH value. As a check on the influence of the buffer, when changing the buffer this pH value was measured twice in the different buffers (pH 7.0 and pH 8.5). 0.1 M citric acid/Na2PO4 was used for the range pH 4.0-7.0, 0.1 M TEA was used for the range 7.0-8.5, and 0.1 M glycine/NaOH was used for the range pH 8.5-10.0.
At pH 8.5 the enzyme is still up to 100% stable after 8 hours in TEA/NaOH buffer as well as in glycine/NaOH buffer. The figure illustrates that the enzyme stable in the slightly alkaline range (pH 8-9) is also stable in a wider range. This range is useful for application purposes if the NADH oxidase for the oxidation is to be coupled with an NAD-dependent dehydrogenase, since the pH optimum of many dehydrogenases for the oxidation lies in a slightly alkaline range.

The nature of data set [5]: temperature optimum of the NADH oxidase. Format: biochemical. The following applies: FIG. 3.
The nature of data set [6]: determination of the KM value for NADH. Format: biochemical.
Data set [7] is described as follows: NAD+ regeneration coupled with R-specific alcohol dehydrogenase recADHG37D, oxidation of (R,S)-phenylethanol, GC analysis. The following applies: 50 mM (R,S)-phenylethanol, 2 mM NADH, pH 7.0, 1 U recADHG37D and 2 U NADH oxidase, FIG. 4. Format: biochemical. As for the experimental part: This may be necessary for example if NAD-dependent dehydrogenases are used for the oxidation, as has been shown in a general way hereinbefore (reaction scheme 1).
(R,S)-phenylethanol was used as alcohol, and the reaction was carried out as a batch reaction.
As a control the same experiment was carried out, but without the addition of NADH oxidase.

For the molecule `NC(=O)C1=CN([C@@H]2O[C@H](COP(=O)(O)OP(=O)(O)OC[C@H]3O[C@@H](n4cnc5c(N)ncnc54)[C@H](O)[C@@H]3O)[C@@H](O)[C@H]2O)C=CC1` [NADH], the “excess inhibition by NADH” value in data set [1] was “weak excess inhibition”.

B1: NADH oxidase (NOX) from Lactobacillus brevis DSM 20054, wild type, SEQ ID NO:2 (Levilactobacillus brevis ATCC 367) (protein)
chain: MKVTVVGCTHAGTFAIKQILAEHPDAEVTVYERNDVISFLSCGIALYLGGKVADPQGLFYSSPEELQKLGANVQMNHNVLAIDPDQKTVTVEDLTSHAQTTESYDKLVMTSGSWPIVPKIPGIDSDRVKLCKNWAHAQALIEDAKEAKRITVIGAGYIGAELAEAYSTTGHDVTLIDAMDRVMPKYFDADFTDVIEQDYRDHGVQLALSETVESFTDSATGLTIKTDKNSYETDLAILCIGFRPNTDLLKGKVDMAPNGAIITDDYMRSSNPDIFAAGDSAAVHYNPTHQNAYIPLATNAVRQGILVGKNLVKPTVKYMGTQSSSGLALYDRTIVSTGLTLAAAKQQGVNAEQVIVEDNYRPEFMPSTEPVLMSLVFDPDTHRILGGALMSKYDVSQSANTLSVCIQNENTIDDLAMVDMLFQPNFDRPFNYLNILAQAAQAKVAQSVNA
As for B1, in data set [2], the Km – broadly, the substrate concentration at which the rate is half of its maximum – stood at 24 µM. Moreover, the “time for which the enzyme is in practice stable” value in data set [3] (storage at 30° C.) is on record as “ca. 400 minutes”. Further, the “half-value time of deactivation” value in data set [3] (storage at 30° C., after ca. 400 minutes) is “ca. 18 hours”. Moreover, the residual activity entry in data set [3] (storage at 42° C., after initial deactivation (up to ca. 120 minutes), stable for at least 16 hours) is on record as “ca. 50%”. Moreover, in data set [4] (8 hours incubation, FIG. 2), the “first stability optimum (pH)” value came out at 5.0 pH and the “second stability optimum (pH)” value is on record as 8.5 pH. Also, the “stability in the range pH 5.5-7.5” value in data set [4] (8 hours incubation, pH 5.5-7.5) is reported as “moderately stable”. In data set [4] (pH 8.5, TEA/NaOH buffer as well as glycine/NaOH buffer, 8 hours), the “stability (residual activity) after 8 hours at pH 8.5” value is reported as “up to 100%”. Besides, the “temperature of maximum activity” value in data set [5] was found to be 40 °C. Besides, the “excess (substrate) inhibition at higher NADH concentrations” value in data set [6] (NADH up to 0.5 mM) was “only a weak excess inhibition”. Besides, the “NADH concentration at which maximum activity is reached” value in data set [6] (NADH varied from 0.0013 to 0.52 mM) was 0.1 mM. In addition, the “oxidation of the R-alcohol of (R,S)-phenylethanol in the coupled reaction” value in data set [7] was “almost completely oxidised”.

The values are drawn from patent US7435574B2 (Degussa AG, priority 2001, dated 2008).
